This assay has as its target Atto540Q-labeled actin monomers (Acanthamoeba castellanii), Latrunculin B-stabilized (Acanthamoeba castellanii, Atto540Q-NHS at reactive lysine residues). Briefly: FRET or BRET; 7.5 nM Alexa488-labeled WAVE1 variant titrated with LatB-stabilized Atto540Q-actin; donor quenching; room temperature; 20 mM HEPES pH 7.0, 100 mM KCl, 1.5 mM MgCl2, 1 mM EGTA, 1 mM ATP; single site binding curve. As to conditions: both partners purified. On the technique in general: Bioluminescence resonance energy transfer reports proximity on the nanometre scale.

Among the data in article PMC5753033, “WH2 and proline‐rich domains of WASP‐family proteins collaborate to accelerate actin filament elongation” (The EMBO Journal, 2017) are Kd values, retold here.

B1: Alexa488-labeled WAVE1 P_CA (WH2-delete construct) (domain or fragment)
chain: RPHEPPPPPPMHGAGDAKPIPTSISSATGLIENRPQSPATGRTPVFVSPTPPPPPPPLPSALSTSSLRASMTSTPPPPVPPPPPPPATALQAPAVPPPPAPLQIAPGVLHPAPPPIAPPLVQPSPPVARAAPVSETVPVHPLPQGEVQGLPPPPPPPPLPPPGIRPSSPVTVTALAHPPSGLHPTPSTAPGPHVPLMPPSPPSQVIPASEPKRHPSCLPVISDEEQREQEAKHERIENDVATILSRRIAVEYSDSEDDSEFDEVDWLE
modifications: Alexa488-maleimide on Cys490
On to B1, for which the Kd (commonly the concentration at which binding is half-saturated) is 425 nM.
